Test results reported in PMC3910374 (Cancer research, 2013).

Legend:
Assay in all cases: SPR
[1] = target: Bcl-2ΔTM-His6 (unphosphorylated) (UniProt P10415 1-219)
GST-Bcl-2ΔTM S70E = GST-Bcl-2ΔTM S70E (UniProt P10415 1-219, S70E)
GST-Bcl-2ΔTM (wt) = GST-Bcl-2ΔTM (wt) (UniProt P10415 1-219)
Chain of GST-Bcl-2ΔTM (wt) (P10415 1-219, stated change not applied): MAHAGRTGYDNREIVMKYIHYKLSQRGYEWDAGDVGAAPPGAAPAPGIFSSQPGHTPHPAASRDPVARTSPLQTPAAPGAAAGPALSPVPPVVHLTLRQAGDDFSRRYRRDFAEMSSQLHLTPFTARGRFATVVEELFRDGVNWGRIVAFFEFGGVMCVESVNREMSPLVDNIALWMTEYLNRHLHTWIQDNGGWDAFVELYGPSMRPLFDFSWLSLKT

Chain of GST-Bcl-2ΔTM S70E (P10415 1-219 S70E): as the sequence (P10415 1-219, stated change not applied) above, with S70E counted along it
Chain of Bcl-2ΔTM-His6 (unphosphorylated) (P10415 1-219, stated change not applied): as the sequence (P10415 1-219, stated change not applied) above

Kd [1] [nM] | binding result (GST-Bcl-2ΔTM S70E) | Kd (GST-Bcl-2ΔTM (wt)) [nM] | Binder
~150 | binds | – | His6-tagged BakΔTM (domain or fragment, UniProt Q16611 1-186, looked up) MASGQGPGPPRQECGEPALPSASEEQVAQDTEEVFRSYVFYRHQQEQEAEGVAAPADPEMVTLPLQPSSTMGQVGRQLAIIGDDINRRYDSEFQTMLQHLQPTAENAYEYFTKIATSLFESGINWGRVVALLGFGYRLALHVYQHGLTGFLGQVTRFVVDFMLHHCIARWIAQRGGWVAALNLGNG
– | – | 7 | RPEIWIAQELRRIGDEFNAYYARRVF [26-mer Bim BH3 peptide]
